Experimental data: article doi:10.1101/2021.08.16.456468, “Positive and negative control of helicase recruitment at a bacterial chromosome origin” (bioRxiv, 2021)
Numbering of substitutions follows the chain as printed. Numbers in names are those of the source.

B1: DnaD, wild type, purified (natural protein, B. subtilis, UniProt P39787 1-232, looked up)
chain: MKKQQFIDMQEQGTSTIPNLLLTHYKQLGLNETELILLLKIKMHLEKGSYFPTPNQLQEGMSISVEECTNRLRMFIQKGFLFIEECEDQNGIKFEKYSLQPLWGKLYEYIQLAQNQTQERKAEGEQKSLYTIFEEEFARPLSPLECETLAIWQDQDQHDAQLIKHALKEAVLSGKLSFRYIDRILFEWKKNGLKTVEQAKIHSQKFRRVQAKQNEPQKEYKRQVPFYNWLEQ
notes: DnaD, Bacillus subtilis, the full-length protein; tetramer of about 113 kDa by SEC-MALS (theoretical 110 kDa); also called wild-type DnaD; wild-type tetrameric DnaD
B2: DnaD^F6A, purified (natural protein, B. subtilis, UniProt P39787 1-232, looked up)
chain: B1 chain with F6A
notes: DnaD, Bacillus subtilis, with F6A; eluted as a 57 kDa species (dimer); The measured mass fits the whole protein
B3: DnaD^K3A (natural protein, B. subtilis, UniProt P39787 1-232, looked up)
chain: B1 chain with K3A
notes: DnaD, Bacillus subtilis, with K3A, used in BS^3 cross-linking
B4: DnaD^1-205, purified (domain or fragment, B. subtilis, UniProt P39787 1-205, looked up)
chain: MKKQQFIDMQEQGTSTIPNLLLTHYKQLGLNETELILLLKIKMHLEKGSYFPTPNQLQEGMSISVEECTNRLRMFIQKGFLFIEECEDQNGIKFEKYSLQPLWGKLYEYIQLAQNQTQERKAEGEQKSLYTIFEEEFARPLSPLECETLAIWQDQDQHDAQLIKHALKEAVLSGKLSFRYIDRILFEWKKNGLKTVEQAKIHSQK
notes: also called DnaD variant lacking the C-terminal tail

Columns and labels:
[1] = biological target: the molecule itself; test: SEC-MALS; purified DnaD variants, size exclusion chromatography followed by multiple angle light scattering
[2] = biological target: the molecule itself; test: cross-linking; amine-specific BS^3, SDS-PAGE, immunoblot

Protein | stoichiometry N [1] | stoichiometry N [2]
B1 | 4 | –
B2 | 2 | –
B3 | – | 2
B4 | 4 | –
